US20150106963A1

molecular target: porcine cytochrome P450 17A1 (CYP17A1), wild type (pig (Sus scrofa)) (UniProt P19100); assay: cell-based or functional assay; conditions: scale: ratio
Chain of UniProt P19100 (P19100 whole entry H407L, form in doubt): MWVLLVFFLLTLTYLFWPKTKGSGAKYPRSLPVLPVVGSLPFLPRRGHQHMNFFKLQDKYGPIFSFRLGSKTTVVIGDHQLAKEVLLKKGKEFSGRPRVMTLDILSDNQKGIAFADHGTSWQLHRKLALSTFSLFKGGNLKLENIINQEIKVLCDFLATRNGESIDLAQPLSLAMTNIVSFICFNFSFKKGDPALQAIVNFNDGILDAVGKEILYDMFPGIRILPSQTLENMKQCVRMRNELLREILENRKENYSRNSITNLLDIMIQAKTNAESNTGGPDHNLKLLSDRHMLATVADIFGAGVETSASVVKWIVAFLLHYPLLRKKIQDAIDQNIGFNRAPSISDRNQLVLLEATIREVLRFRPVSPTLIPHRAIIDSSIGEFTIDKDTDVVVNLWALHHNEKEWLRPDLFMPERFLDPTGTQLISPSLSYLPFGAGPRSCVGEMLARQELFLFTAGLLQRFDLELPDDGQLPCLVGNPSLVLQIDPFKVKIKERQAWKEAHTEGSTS

Compared with “porcine cytochrome b5 type A double mutant CYB5A-N21K+L28V (from UniProt P00172 2-134)”, “porcine cytochrome b5 type A double mutant CYB5A-R52M+N62S (from UniProt P00172 2-134)” is lower in Overall conversion (ratio of activity with b5/activity without b5), pregnenolone metabolism in transfected HEK-293 cells: 1.05 for the first, 0.957 for the second.

Going from “porcine cytochrome b5 type A mutant CYB5A-G57R (from UniProt P00172 2-134)” to “porcine cytochrome b5 type A mutant CYB5A-L28V (from UniProt P00172 2-134)”, the Overall conversion (ratio of activity with b5/activity without b5), pregnenolone metabolism in transfected HEK-293 cells rises from 0.865 to 1.2.

First: porcine cytochrome b5 type A mutant CYB5A-N21K (from UniProt P00172 2-134)
Second: porcine cytochrome b5 type A mutant CYB5A-N62S (from UniProt P00172 2-134)
The Overall conversion (ratio of activity with b5/activity without b5), pregnenolone metabolism in transfected HEK-293 cells of the first is lower: 1.36 for the first, 2.16 for the second.

Compared with “porcine cytochrome b5 type A mutant CYB5A-QM R52M/G57R/N62S/T70S (from UniProt P00172 2-134)”, “porcine cytochrome b5 type A mutant CYB5A-R52M (from UniProt P00172 2-134)” is lower in Overall conversion (ratio of activity with b5/activity without b5), pregnenolone metabolism in transfected HEK-293 cells: 1.4 for the first, 0.765 for the second.

With “porcine cytochrome b5 type A mutant CYB5A-T70S (from UniProt P00172 2-134)” the Overall conversion (ratio of activity with b5/activity without b5), pregnenolone metabolism in transfected HEK-293 cells was 1.09.
